Target: 3-ketomyristoyl-ACP (enzymatically prepared from ShACP)

B1: ShMKS1 (methylketone synthase 1 from Solanum habrochaites f glabratum), recombinant, His-tagged (protein)
chain: MEKSMSPFVKKHFVLVHTAFHGAWCWYKIVALMRSSGHNVTALDLGASGINPKQALQIPNFSDYLSPLMEFMASLPANEKIILVGHALGGLAISKAMETFPEKISVAVFLSGLMPGPNIDATTVCTKAGSAVLGQLDNCVTYENGPTNPPTTLIAGPKFLATNVYHLSPIEDLALATALVRPLYLYLAEDISKEVVLSSKRYGSVKRVFIVATENDALKKEFLKLMIEKNPPDEVKEIEGSDHVTMMSKPQQLFTTLLSIANKYK
With B1 the “amount of 2-tridecanone formed (in vitro thioesterase activity assay, direct hexane extraction, GC-MS)” value was “slightly higher, but not significantly so (t test, p=0.062, α=0.05), than the amount found in the buffer-incubated sample treated with acid and heat”.
